For orientation: IC50 means the concentration at which inhibition is half-maximal. The low end stands for greater potency, the high end for weaker potency.

Assay [1] has as its target T1, mouse GLP-1 receptor (mouse, UniProt O35659 22-463).
T1 sequence (looked up): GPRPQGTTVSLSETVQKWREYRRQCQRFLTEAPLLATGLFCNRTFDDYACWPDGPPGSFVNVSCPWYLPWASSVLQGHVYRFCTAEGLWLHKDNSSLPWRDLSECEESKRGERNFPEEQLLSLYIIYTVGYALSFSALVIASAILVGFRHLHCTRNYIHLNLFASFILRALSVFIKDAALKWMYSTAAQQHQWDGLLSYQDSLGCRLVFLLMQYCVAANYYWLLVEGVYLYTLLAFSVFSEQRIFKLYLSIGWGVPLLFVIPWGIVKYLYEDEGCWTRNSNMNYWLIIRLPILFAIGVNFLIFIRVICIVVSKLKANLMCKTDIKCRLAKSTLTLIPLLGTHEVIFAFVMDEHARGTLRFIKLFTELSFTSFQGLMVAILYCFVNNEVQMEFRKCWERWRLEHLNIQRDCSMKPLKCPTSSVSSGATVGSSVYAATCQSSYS
In words: cell-based or functional assay.

Assay [2] has as its target T2, human GLP-1 receptor (human, UniProt P43220 24-463). In words: cell-based or functional assay.
In assay [3] the target is T2, human GLP-1 receptor. Kind of assay: displacement of 0.2 nM 125I-GLP-1 from membranes of CHOK1 cells expressing human GLP-1 receptor.
Assay [4] concerns the target T3, glucagon (UniProt P01275 53-81).
T3 construct: mature
In words: inhibition of 200 pM 125I-glucagon binding to crude membranes of cells expressing the glucagon receptor, dose range of AG159.

Assay [5] has as its target T3, glucagon. Kind of assay: cell-based or functional assay.

T3 sequence (P01275 53-81): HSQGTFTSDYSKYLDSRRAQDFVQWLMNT

B1: AG159LC:GLP(A2G)-AG159 IgG2 (other)
light: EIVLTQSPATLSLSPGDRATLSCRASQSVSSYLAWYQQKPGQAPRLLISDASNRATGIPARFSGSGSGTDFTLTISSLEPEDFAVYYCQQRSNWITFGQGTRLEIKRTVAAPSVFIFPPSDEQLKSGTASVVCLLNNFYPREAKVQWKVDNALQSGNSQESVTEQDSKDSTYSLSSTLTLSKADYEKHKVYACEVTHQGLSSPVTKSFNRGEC
heavy: HGEGTFTSDVSSYLEGQAAKEFIAWLVKGRGGSGSATGGSGSTASSGSGSATGGGGGGQVQLVESGGGVVQPGRSLRLSCAASGFTFSSYGMHWVRQAPGKGLEWVAVIYYDGSNKYYADSVKGRFTISRDITKNTLYLQMNSLRAEDTAVYYCARASRGFDYWGQGTLVTVSS
notes: GLP-1 peptide-antibody fusion; It was produced in CHO cells; also called GLP(A2G)-AG159 HC; AG159LC:GLP-1-AG159 IgG2; not shown: human IgG2 heavy chain constant region
Take B1: the “EC50 of activation, GLP-1R luciferase reporter assay” value in assay [1] came to 5 nM; in assay [2] it was 0.1 nM. The same molecule had an IC50 in assay [3] of 5 to 10 nM.

B2: AG159 fully human anti-glucagon monoclonal antibody (antibody, V domains shown, not shown: a dimerising Fc or GST)
VH: QVQLVESGGGVVQPGRSLRLSCAASGFTFSSYGMHWVRQAPGKGLEWVAVIYYDGSNKYYADSVKGRFTISRDITKNTLYLQMNSLRAEDTAVYYCARASRGFDYWGQGTLVTVSS
VL: EIVLTQSPATLSLSPGDRATLSCRASQSVSSYLAWYQQKPGQAPRLLISDASNRATGIPARFSGSGSGTDFTLTISSLEPEDFAVYYCQQRSNWITFGQGTRLEIKR
notes: also called AGl 59; AG159 Ab
B2 returned a 50% inhibitory concentration (IC50) in assay [4] of 0.2 nM. Moreover, the “IC50 of neutralization of glucagon stimulated luciferase reporter activity (cells expressing recombinant glucagon receptor, 0.1 nM glucagon)” value in assay [5] came out at 4 nM.

B3: GLP(A2G)-AG159LC:AG159 IgG2 (other)
light: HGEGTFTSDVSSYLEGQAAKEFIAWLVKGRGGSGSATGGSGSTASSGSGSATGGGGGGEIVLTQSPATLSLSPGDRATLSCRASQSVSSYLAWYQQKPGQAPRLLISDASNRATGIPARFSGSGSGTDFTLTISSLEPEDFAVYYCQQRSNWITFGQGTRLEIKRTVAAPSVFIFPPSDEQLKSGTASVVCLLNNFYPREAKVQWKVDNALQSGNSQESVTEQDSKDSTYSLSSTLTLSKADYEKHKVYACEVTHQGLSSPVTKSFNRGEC
heavy: B2 VH
notes: GLP-1 peptide-antibody fusion; also called GLP(A26)-AG159LC:AG159 IgG2; not shown: which one cannot be told, Tab
B3: the “EC50 of activation, GLP-1R luciferase reporter assay” value in assay [1] was 5 nM; in assay [2], 0.1 nM. Further, the IC50 in assay [3] was in the range of 5 to 10 nM.

The values are drawn from patent WO2007124463A1 (dated 2007).
